Article doi:10.1101/062877
Like-named read-outs stand apart in the source and are kept apart here.

Columns and labels:
Assay in all cases: single-molecule TIRF microscopy of live cells
[1] = target: DNA-CAR (DNA-based chimeric antigen receptor; HA-tagged non-fluorescent version, pHR-DNA-CAR-IRES-puro) (UniProt P42081)
[2] = target: DNA-CAR (DNA-based chimeric antigen receptor; HA-tagged non-fluorescent version, pHR-DNA-CAR-IRES-puro) (UniProt P42081); remark: listed apart in the source
[3] = target: DNA-CAR (DNA-based chimeric antigen receptor; HA-tagged non-fluorescent version, pHR-DNA-CAR-IRES-puro) (UniProt P42081); remark: listed apart in the source

ZAP70-GFP, sequence (P43403 whole entry): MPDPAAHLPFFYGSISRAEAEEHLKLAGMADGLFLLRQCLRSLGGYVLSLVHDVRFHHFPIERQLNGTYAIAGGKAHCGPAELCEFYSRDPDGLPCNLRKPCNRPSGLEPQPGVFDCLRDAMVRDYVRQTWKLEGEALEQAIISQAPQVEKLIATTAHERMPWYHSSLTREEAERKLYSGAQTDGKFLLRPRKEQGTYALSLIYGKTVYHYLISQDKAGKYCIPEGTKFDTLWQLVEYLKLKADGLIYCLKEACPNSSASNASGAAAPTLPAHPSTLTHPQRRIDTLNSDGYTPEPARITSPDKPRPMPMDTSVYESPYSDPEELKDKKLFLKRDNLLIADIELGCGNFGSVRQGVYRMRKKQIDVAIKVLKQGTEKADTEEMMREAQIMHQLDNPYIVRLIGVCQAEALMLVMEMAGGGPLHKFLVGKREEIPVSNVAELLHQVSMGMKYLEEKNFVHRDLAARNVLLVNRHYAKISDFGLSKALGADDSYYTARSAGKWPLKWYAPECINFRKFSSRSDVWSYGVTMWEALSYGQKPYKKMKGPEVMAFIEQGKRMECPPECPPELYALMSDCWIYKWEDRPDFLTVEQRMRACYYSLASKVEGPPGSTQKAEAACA

percent of single bound ligand-receptors that recruit ZAP70-GFP [1]: 2.2% | percent of receptor-ligand clusters of 3 or more ligands that recruit ZAP70-GFP [2]: 53% | percent of single bound ligands that recruit ZAP70-GFP [2]: 2% | duration of ZAP70-GFP recruitment at a single ligated receptor [3]: < 20 s | half-life of the bound time on a single ligated receptor [3]: 10 s | percent of receptor-ligand clusters of 3 or more ligands that recruit ZAP70-GFP [3]: 83% | percent of single bound ligand-receptors that recruit ZAP70-GFP [3]: 6.3% | percent of single bound receptors that recruit ZAP70-GFP [3]: 20%
Substance: ZAP70-GFP (from UniProt P43403 1-619) (enzyme)
